Reference: patent publication US20250152746A1, “BASE EDITING OF ANGPTL3 AND METHODS OF USING SAME FOR TREATMENT OF DISEASE” (Verve Therapeutics, Inc., priority 2020, published 2025)
In the oligonucleotide strings, read from the 5' end, every base follows the letter of its sugar. An asterisk marks phosphorothioate; unmarked linkages are phosphodiester. Other units and linkages are bracketed, terminal groups are in braces. A string of capitals states the bases alone. m = 2'-O-methyl; r = 2'-OH (RNA)

B1: GA002: PCSK9 gRNA, GA156 spacer with modifications to the tracrRNA sequence (nucleic acid)
guide: GGTGCTAGCCTTGCGTTCCGGTTTTAGAGCTAGAAATAGCAAGTTAAAATAAGGCTAGTCCGTTATCAACTTGAAAAAGTGGCACCGAGTCGGTGCTTTT
modifications: listed as RNA; modified_base 1: mod_base = OTHER; note = 2'-O-Methyl-guanosine phosphorothioate; modified_base 2: mod_base = OTHER; modified_base 3: mod_base = OTHER; note = 2'-O-Methyl-uridine phosphorothioate
B2: GA004: PCSK9 gRNA, GA156 spacer with modifications to the tracrRNA sequence (nucleic acid)
guide: mG*mG*mU*rGrCrUrArGrCrCrUrUrGrCrGrUrUrCrCrGmGrUrUrUrUrArGmAmGmCmUmAmGmAmAmAmUmAmGmCmAmArGrUrUmArAmArAmUrAmAmGmGmCmUmArGrUmCmCrGrUrUrAmUmCrArAmCmUmUmGmAmAmAmAmAmGmUmGrGmCmAmCmCmGmAmGmUmCmGmGmUmGmCmUmUmUmUmU
B3: GA005: PCSK9 gRNA, GA156 spacer with modifications to the tracrRNA sequence (nucleic acid)
guide: GGTGCTAGCCTTGCGTTCCGGTTTTAGAGCTAGAAATAGCAAGTTAAAATAAGGCTAGTCCGTTATCAACTTGAAAAAGTGGCACCGAGTCGGTGCTTTTT
modifications: chemistry not given here
B4: GA001: PCSK9 gRNA, GA156 spacer with modifications to the tracrRNA sequence (nucleic acid)
guide: rG*rG*rU*rGrCrUrArGrCrCrUrUrGrCrGrUrUrCrCrGrGrUrUrUrUrArGrAmGmCmUmAmGmAmAmAmUmAmGmCrArArGrUrUrArArArArUrArArGrGrCrUrArGrUrCrCrGrUrUrArUrCrAmAmCmUmUmGmAmAmAmAmAmGmUmGmGmCmAmCmCmGmAmGmUmCmGmGmUmGmCmU*mU*mU*mU
B5: GA009: minimally modified control gRNA, PCSK9 (nucleic acid)
guide: mG*mG*mU*rGrCrUrArGrCrCrUrUrGrCrGrUrUrCrCrGrGrUrUrUrUrArGrArGrCrUrArGrArArArUrArGrCrArArGrUrUrArArArArUrArArGrGrCrUrArGrUrCrCrGrUrUrArUrCrArArCrUrUrGrArArArArArGrUrGrGrCrArCrCrGrArGrUrCrGrGrUrGrCrU*mU*mU*mU
B6: GA006: PCSK9 gRNA, GA156 spacer with modifications to the tracrRNA sequence (nucleic acid)
guide: rG*rG*rU*rGrCrUrArGrCrCrUrUrGrCrGrUrUrCrCrGmGrUrUrUrUrArGmAmGmCmUmAmGmAmAmAmUmAmGmCmAmArGrUrUmArAmArAmUrAmAmGmGmCmUmArGrUmCmCrGrUrUrAmUmCrArAmCmUmUmGmAmAmAmAmAmGmUmGrGmCmAmCmCmGmAmGmUmCmGmGmUmGmCmU*mU*mU*mU
B7: GA003: PCSK9 gRNA, GA156 spacer with modifications to the tracrRNA sequence (nucleic acid)
guide: mG*mG*mU*rGrCrUrArGrCrCrUrUrGrCrGrUrUrCrCrGrGrUrUrUrU*rArGrAmGmCmUmAmGmAmAmAmUmAmGmCrArArGrUrU*rArArArArU*rArArGrGrCrU*rArGrUrCrCrGrUrU*rArUrC*rAmAmCmUmUmGmAmAmAmAmAmGmUmGmGmCmAmCmCmGmAmGmUmCmGmGmUmGmCmU*mU*mU*mU

Tested on: PCSK9 gene
Test: PCSK9 gRNA/SpCas9 editing in primary human hepatocytes (Tables 2, 4)
Format: cell-based
Settings: modified gRNA, SpCas9 mRNA MS002 1:1 by weight; day 3 post transfection
Procedure: In set of experiments, PCSK9 gRNAs were co-transfected with an equivalent amount (1:1 ratio by weight) of in vitro transcribed commercially available SpCas9 mRNA MS002 purchased from TriLink Biotechnologies into primary human hepatocytes at 2500, 500, or 100 ng/RNA/mL and processed as described in detailed methods. Extracted genomic DNA was analyzed for gene editing at the target site with next-generation sequencing of PCR amplicons generated around the target sites. Samples were prepared using the Nextera XT DNA library preparation kit (Illumina) according to the manufacturer's protocol. Briefly, two rounds of PCR were performed first to amplify the region of interest and second to add DNA sequences required for next generation sequencing and sample identification to the initial product. The final amplicon was sequenced on the Illumina MiSeq instrument according to the manufacturer's protocol. A wide range of editing activities (Table 2) were observed. In a second set of experiments, ANGPTL3 gRNAs were co-transfected with an equivalent amount of in vitro transcribed SpCas9 mRNA (1:1 ratio by weight) into primary human hepatocytes and processed and analyzed similarly (Table 3).
PCSK9 gRNAs were co-transfected with an equivalent amount of in vitro transcribed SpCas9 mRNA MS002 (1:1 ratio by weight) into primary human hepatocytes and processed as described in detailed methods. A wide range of editing activities were observed (Table 4; ND=Not determined). The guides with the highest editing activity at five days post transfection were GA001, GA002, GA007, and GA008.
Human primary hepatocytes were transfected at 2500, 1250, 500, and 250 ng/test article/mL with SpCas9 mRNA MS002 and a gRNA targeting PCSK9 with modifications to the tracr. Genomic DNA was processed, sequenced, and analyzed as described in the detailed methods section. GA156 was transfected to serve as a positive control.
Plating, culturing, and transfection of primary hepatocytes. Primary human liver hepatocytes (PHH) and primary cynomolgus liver hepatocytes (PCH) from BioIVT were cultured per the manufacturer's protocol. Briefly, primary human hepatocytes and primary cyno hepatocytes were obtained as frozen aliquots from BioIVT. Four lots of primary human hepatocytes, each derived from a de-identified individual donor, were used for the experiments: STL (main donor) was used for all experiments, including screening experiments and off-target experiments; HLY, JLP, and TLY were used for off-target experiments. The HFG lot of primary cyno hepatocytes were used for experiments. Following the manufacturer's instructions, cells were thawed and rinsed prior to plating in 24-well plates that had been coated with bovine collagen overnight, with a density of approximate 350,000 cells/well in INVITROGRO hepatocyte medium supplemented with TORPEDO antibiotic mix (BioIVT). The cells were thawed and resuspended in hepatocyte thawing medium followed by centrifugation at 100 g for 10 min at 4° C. The supernatant was discarded, and the pelleted cells resuspended in hepatocyte plating medium. Each vial contains approximately 5 million cells that were used for plating one 24-well plate. Plated cells were allowed to settle and adhere for 4-6 h in a tissue culture incubator at 37° C. under 5% CO2 atmosphere. After incubation, cells were checked for monolayer formation. The incubating media were then replaced with fresh hepatocyte maintenance media (complete INVITROGRO medium obtained from BioIVT, the cell line provider). The cells thus became ready for transfection. Each of the gRNAs were co-transfected with an equivalent amount of in vitro transcribed ABE8.8 mRNA (1:1 ratio by molecular weight) into primary human hepatocytes via MessengerMax reagent (Lipofectamine), using various dilutions to assess for editing activity at different concentrations of test article. MessengerMAX from Thermo Fisher is used for transfection. […]

Molecule | % Editing, day 3 [%]
B1 | 28
B2 | 7
B3 | 1
B4 | 16
B5 | 4

Same assay, conditions: modified gRNA, SpCas9 mRNA MS002 1:1 by weight; day 5 post transfection

Molecule | % Editing, day 5 [%]
B6 | 12
B1 | 23
B2 | 12
B3 | 15
B7 | 7
B4 | 27
B5 | 19
